Laboratory results: the supplement of paper PMC10065799, “High-throughput profiling of sequence recognition by tyrosine kinases and SH2 domains using bacterial peptide display” (eLife, 2023)

Legend:
AncSZ = assay: phosphorylation enrichment, bacterial display (enrichment ratio); higher = better substrate or ligand; peptides without Tyr show the background
EPHB1 = EPHB1 (UniProt P54762); assay: as above
EPHB2 = EPHB2 (UniProt P29323); assay: as above
FGFR1 = FGFR1 (UniProt P11362); assay: as above
FGFR3 = FGFR3 (UniProt P22607); assay: as above
Chain of FGFR3 (P22607 whole entry, looked up): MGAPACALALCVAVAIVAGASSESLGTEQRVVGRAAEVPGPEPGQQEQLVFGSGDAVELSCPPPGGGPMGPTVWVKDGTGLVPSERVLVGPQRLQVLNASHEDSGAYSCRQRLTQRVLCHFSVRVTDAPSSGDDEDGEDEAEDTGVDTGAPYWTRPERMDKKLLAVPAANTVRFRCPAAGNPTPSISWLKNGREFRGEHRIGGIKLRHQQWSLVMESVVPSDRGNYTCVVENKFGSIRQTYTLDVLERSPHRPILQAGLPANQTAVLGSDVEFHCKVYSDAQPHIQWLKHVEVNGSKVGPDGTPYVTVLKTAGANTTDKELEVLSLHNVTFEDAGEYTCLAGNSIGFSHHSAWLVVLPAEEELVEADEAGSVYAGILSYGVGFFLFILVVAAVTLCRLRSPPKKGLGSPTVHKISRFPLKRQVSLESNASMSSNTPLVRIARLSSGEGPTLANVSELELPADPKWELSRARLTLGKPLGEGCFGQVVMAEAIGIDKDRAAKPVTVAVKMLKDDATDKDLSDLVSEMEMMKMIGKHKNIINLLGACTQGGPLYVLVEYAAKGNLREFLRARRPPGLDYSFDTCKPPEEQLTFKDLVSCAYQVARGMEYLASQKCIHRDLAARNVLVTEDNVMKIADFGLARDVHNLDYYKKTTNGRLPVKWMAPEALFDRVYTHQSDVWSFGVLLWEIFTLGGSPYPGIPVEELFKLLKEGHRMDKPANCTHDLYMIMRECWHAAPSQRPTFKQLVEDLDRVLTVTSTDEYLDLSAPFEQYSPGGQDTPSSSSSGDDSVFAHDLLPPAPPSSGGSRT

Fer (mouse) = assay: as above
Fes = Fes (UniProt P07332); assay: as above
Fyn = Fyn (UniProt P06241); assay: as above
Chain of Fyn (P06241 whole entry, looked up): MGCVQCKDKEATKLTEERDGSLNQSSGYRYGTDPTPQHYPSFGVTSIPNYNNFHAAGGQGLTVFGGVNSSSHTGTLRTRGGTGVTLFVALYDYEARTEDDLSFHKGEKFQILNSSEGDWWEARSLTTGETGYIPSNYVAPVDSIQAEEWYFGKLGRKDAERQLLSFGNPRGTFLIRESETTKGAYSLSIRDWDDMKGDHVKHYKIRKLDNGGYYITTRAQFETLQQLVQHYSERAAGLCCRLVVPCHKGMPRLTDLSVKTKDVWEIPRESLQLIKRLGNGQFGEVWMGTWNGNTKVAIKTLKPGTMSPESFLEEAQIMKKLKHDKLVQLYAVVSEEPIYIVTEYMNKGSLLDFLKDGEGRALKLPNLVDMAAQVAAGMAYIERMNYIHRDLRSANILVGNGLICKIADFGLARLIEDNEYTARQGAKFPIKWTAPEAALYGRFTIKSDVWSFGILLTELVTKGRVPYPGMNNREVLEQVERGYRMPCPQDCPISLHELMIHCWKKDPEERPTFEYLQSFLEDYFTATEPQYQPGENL

Hck = Hck (UniProt P08631); assay: as above
Chain of Hck (P08631 whole entry, looked up): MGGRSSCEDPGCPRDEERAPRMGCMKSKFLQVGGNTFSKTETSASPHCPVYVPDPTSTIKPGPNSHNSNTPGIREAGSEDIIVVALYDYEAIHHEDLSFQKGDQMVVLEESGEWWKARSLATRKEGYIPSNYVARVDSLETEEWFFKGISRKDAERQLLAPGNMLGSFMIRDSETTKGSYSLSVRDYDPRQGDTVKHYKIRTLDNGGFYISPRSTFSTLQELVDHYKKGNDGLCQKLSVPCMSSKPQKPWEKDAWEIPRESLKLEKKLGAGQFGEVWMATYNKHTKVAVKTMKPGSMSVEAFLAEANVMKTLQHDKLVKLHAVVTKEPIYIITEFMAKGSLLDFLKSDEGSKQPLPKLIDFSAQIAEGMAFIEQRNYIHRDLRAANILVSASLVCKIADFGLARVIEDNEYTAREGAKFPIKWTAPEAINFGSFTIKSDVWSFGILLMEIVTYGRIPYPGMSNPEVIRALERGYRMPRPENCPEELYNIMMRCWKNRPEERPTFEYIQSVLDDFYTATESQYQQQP

Jak2 = Jak2 (UniProt O60674); assay: as above
Chain of Jak2 (O60674 whole entry, looked up): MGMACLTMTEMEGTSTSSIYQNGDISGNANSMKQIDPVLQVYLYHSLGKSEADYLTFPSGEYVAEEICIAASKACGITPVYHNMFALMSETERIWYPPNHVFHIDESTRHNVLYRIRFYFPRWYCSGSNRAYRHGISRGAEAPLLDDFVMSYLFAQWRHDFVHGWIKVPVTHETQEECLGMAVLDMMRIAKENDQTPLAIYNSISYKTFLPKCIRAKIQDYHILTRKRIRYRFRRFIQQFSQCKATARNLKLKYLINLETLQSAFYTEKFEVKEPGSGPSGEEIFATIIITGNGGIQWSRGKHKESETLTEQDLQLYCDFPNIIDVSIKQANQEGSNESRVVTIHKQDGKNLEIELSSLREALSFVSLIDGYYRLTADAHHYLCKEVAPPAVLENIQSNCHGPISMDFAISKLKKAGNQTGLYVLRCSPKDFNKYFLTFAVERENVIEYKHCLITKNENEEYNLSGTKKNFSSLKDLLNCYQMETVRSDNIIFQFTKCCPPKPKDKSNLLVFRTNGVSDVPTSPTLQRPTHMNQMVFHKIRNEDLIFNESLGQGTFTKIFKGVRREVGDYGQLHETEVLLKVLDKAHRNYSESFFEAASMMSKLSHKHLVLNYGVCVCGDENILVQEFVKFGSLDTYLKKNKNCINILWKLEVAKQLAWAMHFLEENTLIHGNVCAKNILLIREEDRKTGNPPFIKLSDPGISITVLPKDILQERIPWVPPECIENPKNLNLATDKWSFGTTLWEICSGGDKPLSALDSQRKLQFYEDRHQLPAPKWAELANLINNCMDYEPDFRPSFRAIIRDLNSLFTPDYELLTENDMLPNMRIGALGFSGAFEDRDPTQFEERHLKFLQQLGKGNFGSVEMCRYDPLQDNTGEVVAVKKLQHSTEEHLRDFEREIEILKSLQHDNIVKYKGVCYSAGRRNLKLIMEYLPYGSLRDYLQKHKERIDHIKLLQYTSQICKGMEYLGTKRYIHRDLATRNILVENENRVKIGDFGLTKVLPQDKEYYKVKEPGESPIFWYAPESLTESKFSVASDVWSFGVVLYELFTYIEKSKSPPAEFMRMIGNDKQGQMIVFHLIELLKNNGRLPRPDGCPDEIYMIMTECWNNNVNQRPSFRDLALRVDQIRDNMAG

MERTK = MERTK (UniProt Q12866); assay: as above
Chain of MERTK (Q12866 whole entry, looked up): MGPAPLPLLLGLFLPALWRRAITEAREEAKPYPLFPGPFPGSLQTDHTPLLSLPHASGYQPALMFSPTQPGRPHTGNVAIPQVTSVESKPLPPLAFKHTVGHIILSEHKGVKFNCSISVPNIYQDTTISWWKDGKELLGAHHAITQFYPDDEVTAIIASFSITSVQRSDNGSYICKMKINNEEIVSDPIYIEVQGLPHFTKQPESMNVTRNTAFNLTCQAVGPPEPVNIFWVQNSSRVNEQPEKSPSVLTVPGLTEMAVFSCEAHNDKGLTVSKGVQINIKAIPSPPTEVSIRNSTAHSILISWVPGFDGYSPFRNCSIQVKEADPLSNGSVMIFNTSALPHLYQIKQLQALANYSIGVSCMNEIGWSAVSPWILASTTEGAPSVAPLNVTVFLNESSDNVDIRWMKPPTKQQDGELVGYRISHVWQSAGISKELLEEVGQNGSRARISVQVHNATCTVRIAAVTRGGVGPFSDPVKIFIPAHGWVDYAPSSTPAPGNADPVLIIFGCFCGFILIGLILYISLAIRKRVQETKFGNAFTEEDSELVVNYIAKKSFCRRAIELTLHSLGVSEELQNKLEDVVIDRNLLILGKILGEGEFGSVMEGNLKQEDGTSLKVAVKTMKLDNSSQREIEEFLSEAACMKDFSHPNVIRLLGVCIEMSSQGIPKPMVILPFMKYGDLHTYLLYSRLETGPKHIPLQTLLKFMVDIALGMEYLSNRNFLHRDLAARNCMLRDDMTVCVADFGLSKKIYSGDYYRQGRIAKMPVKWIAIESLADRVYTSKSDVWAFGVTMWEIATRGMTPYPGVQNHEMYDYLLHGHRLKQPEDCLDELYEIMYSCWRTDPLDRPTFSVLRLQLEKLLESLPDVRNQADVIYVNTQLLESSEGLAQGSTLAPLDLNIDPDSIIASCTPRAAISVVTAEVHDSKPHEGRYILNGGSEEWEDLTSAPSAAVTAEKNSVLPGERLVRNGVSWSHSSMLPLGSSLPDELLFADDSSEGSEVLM

c-Abl (mouse) = assay: as above
c-Src = assay: as above
Grb2 SH2 = Grb2 SH2 (UniProt P62993); assay: SH2 binding enrichment of the phosphorylated peptide, bacterial display (enrichment ratio); higher = better substrate or ligand; peptides without Tyr show the background
SHP2-C SH2 = assay: as above
c-Src SH2 = assay: as above
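Wherever SH2 binding enrichment of the phosphorylated peptide, bacterial display is given: peptide library displayed on the E. coli surface as eCPX fusions, selected cells deep-sequenced, score is each peptide's frequency after selection divided by its frequency in the input.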
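Wherever phosphorylation enrichment, bacterial display is given: 11-residue human phosphosite peptides and single-mutation variants displayed on the E. coli surface, counted by deep sequencing, each peptide's frequency after selection divided by its frequency in the unselected input library; frequency after pTyr selection over input frequency; kinase dosed for 20-30% of maximal phosphorylation in three min.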

Chain of EPHB2 (P29323 whole entry, looked up): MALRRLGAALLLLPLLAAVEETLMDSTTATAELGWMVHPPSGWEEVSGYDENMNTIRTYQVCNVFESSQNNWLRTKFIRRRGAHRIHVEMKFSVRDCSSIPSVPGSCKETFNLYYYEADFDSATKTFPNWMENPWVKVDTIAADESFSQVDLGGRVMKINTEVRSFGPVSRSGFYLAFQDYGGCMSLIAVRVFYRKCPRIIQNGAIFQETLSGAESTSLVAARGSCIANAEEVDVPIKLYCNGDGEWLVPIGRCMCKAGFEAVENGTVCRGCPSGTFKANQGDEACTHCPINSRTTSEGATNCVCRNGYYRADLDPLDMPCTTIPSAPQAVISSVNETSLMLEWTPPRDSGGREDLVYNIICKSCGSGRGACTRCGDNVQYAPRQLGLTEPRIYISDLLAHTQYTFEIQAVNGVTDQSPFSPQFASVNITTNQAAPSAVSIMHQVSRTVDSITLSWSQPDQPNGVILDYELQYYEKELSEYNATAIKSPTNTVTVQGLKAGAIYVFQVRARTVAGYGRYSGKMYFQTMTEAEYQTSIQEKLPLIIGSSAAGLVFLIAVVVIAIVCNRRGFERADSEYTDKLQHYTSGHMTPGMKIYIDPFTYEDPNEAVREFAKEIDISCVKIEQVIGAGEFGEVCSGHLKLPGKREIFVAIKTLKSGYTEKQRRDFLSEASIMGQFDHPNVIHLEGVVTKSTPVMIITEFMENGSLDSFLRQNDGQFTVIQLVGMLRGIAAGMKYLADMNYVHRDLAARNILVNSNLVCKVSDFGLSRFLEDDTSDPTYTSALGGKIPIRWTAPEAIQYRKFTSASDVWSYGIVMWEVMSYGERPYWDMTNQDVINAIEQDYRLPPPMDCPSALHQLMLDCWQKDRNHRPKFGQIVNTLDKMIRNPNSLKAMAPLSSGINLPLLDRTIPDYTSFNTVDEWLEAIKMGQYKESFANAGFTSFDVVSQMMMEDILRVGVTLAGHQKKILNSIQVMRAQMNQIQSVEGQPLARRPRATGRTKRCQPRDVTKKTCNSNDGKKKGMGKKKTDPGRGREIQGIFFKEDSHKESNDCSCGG

Row | Sequence | SH2 binding enrichment (Grb2 SH2) | SH2 binding enrichment (SHP2-C SH2) | SH2 binding enrichment (c-Src SH2) | phosphorylation enrichment (AncSZ) | phosphorylation enrichment (EPHB1) | phosphorylation enrichment (EPHB2) | phosphorylation enrichment (FGFR1) | phosphorylation enrichment (FGFR3) | phosphorylation enrichment (Fer (mouse)) | phosphorylation enrichment (Fes) | phosphorylation enrichment (Fyn) | phosphorylation enrichment (Hck) | phosphorylation enrichment (Jak2) | phosphorylation enrichment (MERTK) | phosphorylation enrichment (c-Abl (mouse)) | phosphorylation enrichment (c-Src)
1 | IMWDSYTTNKV [GNB3_Y85_V81M] | 0.749 | 0.675 | 0.66 | 0.945 | 0.544 | 0.437 | 0.451 | 0.64 | 0.392 | 0.885 | 0.33 | 0.421 | 0.91 | 0.305 | 0.553 | 0.369
2 | INQGPYENHSV [ATP6V1B1_Y462_R465H] | 4.77 | 0.777 | 2.07 | 0.646 | 0.436 | 0.639 | 0.441 | 0.524 | 9.94 | 0.804 | 0.471 | 0.4 | 0.68 | 0.55 | 0.54 | 0.524
3 | INSLKYAYNIS [EIF2B5_Y583] | 0.778 | 0.598 | 0.665 | 0.476 | 0.403 | 0.368 | 0.425 | 0.474 | 0.392 | 0.762 | 0.414 | 0.401 | 0.569 | 0.398 | 0.421 | 0.412
4 | IQKWEYVPLGP [FAH_Y244] | 0.834 | 0.558 | 0.656 | 1.02 | 0.612 | 0.521 | 1.11 | 0.822 | 0.454 | 1.01 | 0.514 | 0.48 | 1.43 | 0.597 | 0.791 | 0.453
5 | ISKQEYDEAGP [ACTC1_Y364] | 0.921 | 0.718 | 6.16 | 1.28 | 0.65 | 0.741 | 0.522 | 0.819 | 0.627 | 1.29 | 0.602 | 0.616 | 1.31 | 0.518 | 0.79 | 0.598
6 | ITRDEYPSNPM [CEMIP2_Y1015] | 0.717 | 0.629 | 0.475 | 0.688 | 0.413 | 0.369 | 0.426 | 0.467 | 0.344 | 0.589 | 0.413 | 0.352 | 0.497 | 0.329 | 0.414 | 0.345
7 | IVKAYYVRARA [AIPL1_Y268] | 0.976 | 0.923 | 0.521 | 1.01 | 0.358 | 0.47 | 0.466 | 0.471 | 0.396 | 0.936 | 0.466 | 0.419 | 0.743 | 0.502 | 0.512 | 0.361
8 | KAIMTYVFSFY [ACTN4_Y260_S262F] | 0.987 | 1.08 | 0.561 | 1.19 | 0.63 | 0.592 | 0.559 | 0.794 | 0.54 | 1.27 | 0.438 | 0.464 | 1.06 | 0.436 | 0.966 | 0.507
9 | KALKQYRAGPS [DDX27_Y763] | 1.04 | 0.804 | 0.438 | 0.473 | 0.34 | 0.312 | 0.355 | 0.368 | 0.389 | 0.553 | 0.43 | 0.454 | 0.545 | 0.391 | 0.531 | 0.407
10 | KDAGDYKFKAK [LRIT3_Y326_C328Y_YF] | 0.792 | 0.853 | 0.504 | 0.406 | 0.345 | 0.259 | 0.421 | 0.362 | 0.278 | 0.613 | 0.322 | 0.38 | 0.392 | 0.443 | 0.338 | 0.305
11 | KDFETYQPFQN [CTNND2_Y1157_YF] | 0.948 | 0.699 | 0.544 | 1.13 | 0.69 | 0.786 | 0.54 | 0.603 | 0.612 | 1.02 | 4.76 | 5.76 | 0.869 | 0.463 | 0.741 | 4.18
12 | KDFETYQSFQN [CTNND2_Y1157_P1159S_YF] | 0.846 | 0.816 | 0.523 | 0.958 | 2 | 1.17 | 0.5 | 0.691 | 0.493 | 0.984 | 6.89 | 5.29 | 0.798 | 0.484 | 0.668 | 4.94
13 | KDKLPYPYDDP [GPX2_Y125] | 0.889 | 0.757 | 1.67 | 1 | 0.599 | 0.487 | 0.562 | 0.655 | 0.455 | 1.17 | 0.414 | 0.435 | 1.04 | 0.42 | 0.584 | 0.486
14 | KEKLCYVALDF [ACTA1_Y220] | 0.727 | 1.04 | 0.46 | 1.26 | 0.737 | 0.676 | 2.4 | 2.15 | 1.29 | 1.17 | 1.03 | 1.27 | 2.68 | 4.72 | 0.877 | 1.81
15 | KFMVGYEMLAK [GALT_Y339_Q344K] | 0.867 | 0.544 | 1.7 | 0.914 | 0.477 | 0.604 | 0.776 | 0.631 | 0.349 | 1.03 | 0.507 | 0.586 | 0.698 | 0.407 | 0.51 | 0.406
16 | KFVKMYDNHQL [MYO9A_Y203_YF] | 0.79 | 0.502 | 0.891 | 0.586 | 0.442 | 0.482 | 0.418 | 0.512 | 0.458 | 0.572 | 0.377 | 0.424 | 0.402 | 0.532 | 0.438 | 0.378
17 | KGEDFYCVTFH [FHL1_Y149_C153Y_YF] | 1.03 | 0.799 | 0.515 | 1.48 | 0.825 | 0.891 | 0.952 | 1.12 | 1.54 | 1.48 | 1.78 | 1.19 | 1.21 | 2.82 | 0.895 | 1.47
18 | KKCTRYIDCDR [ASPA_Y64_L69R] | 0.974 | 0.633 | 0.839 | 0.832 | 0.402 | 0.445 | 0.417 | 0.542 | 0.406 | 1 | 0.323 | 0.37 | 0.691 | 0.461 | 0.72 | 0.427
19 | KLIMECLPFGS [JAK2_Y931_Y931C_YF] | 0.706 | 0.491 | 0.559 | 1.24 | 0.969 | 0.588 | 0.576 | 0.858 | 0.622 | 1.39 | 0.619 | 0.652 | 1.57 | 0.521 | 0.96 | 0.611
20 | KLIMEYLPYGS [JAK2_Y931] | 0.845 | 0.742 | 0.762 | 0.989 | 0.493 | 0.632 | 0.543 | 0.68 | 0.405 | 1.02 | 0.518 | 0.51 | 0.945 | 0.395 | 0.62 | 0.564
21 | KLVQLYGVCTK [BTK_Y461] | 1.07 | 0.981 | 0.882 | 0.848 | 1.33 | 1.43 | 0.439 | 0.532 | 0.439 | 0.887 | 1.25 | 1.91 | 0.773 | 0.892 | 0.686 | 1.25
22 | KLVRLYAVVTR [LYN_Y306] | 1.1 | 2.41 | 0.869 | 1.35 | 0.799 | 0.633 | 0.483 | 0.794 | 0.474 | 1.14 | 0.402 | 0.49 | 1.15 | 0.497 | 0.971 | 0.611

The next lines start with results.

Row | SH2 binding enrichment (Grb2 SH2) | SH2 binding enrichment (SHP2-C SH2) | SH2 binding enrichment (c-Src SH2) | Sequence | phosphorylation enrichment (AncSZ) | phosphorylation enrichment (EPHB1) | phosphorylation enrichment (EPHB2) | phosphorylation enrichment (FGFR1) | phosphorylation enrichment (FGFR3) | phosphorylation enrichment (Fer (mouse)) | phosphorylation enrichment (Fes) | phosphorylation enrichment (Fyn) | phosphorylation enrichment (Hck) | phosphorylation enrichment (Jak2) | phosphorylation enrichment (MERTK) | phosphorylation enrichment (c-Abl (mouse)) | phosphorylation enrichment (c-Src)
23 | 1.01 | 0.793 | 0.467 | IVLRSYPASDH [NID2_Y449_G453D] | 0.966 | 0.543 | 0.495 | 0.496 | 0.546 | 0.44 | 0.823 | 0.478 | 0.44 | 0.743 | 0.465 | 0.583 | 0.416
24 | 0.875 | 1.03 | 7.79 | IVRSLYEDLED [VHL_Y185] | 1.19 | 0.584 | 0.573 | 0.505 | 0.73 | 1.17 | 1.08 | 0.509 | 0.564 | 1.01 | 0.424 | 0.68 | 0.393
25 | 1.94 | 1.85 | 1.72 | KACKHYLTKRT [ZBTB5_Y118_T121K] | 0.667 | 0.493 | 0.662 | 0.629 | 1.19 | 0.668 | 1.17 | 0.595 | 0.582 | 1.3 | 0.605 | 1.05 | 0.581
26 | 1.18 | 1.09 | 0.697 | KDHLDYKYQPR [SOX9_Y172_P170L] | 0.585 | 0.419 | 0.448 | 0.462 | 0.629 | 0.445 | 0.704 | 0.441 | 0.415 | 0.452 | 0.418 | 0.451 | 0.433
27 | 0.835 | 0.813 | 0.516 | KDHPDYKFQAR [SOX10_Y171_P175A_YF] | 0.757 | 0.409 | 0.408 | 0.466 | 0.489 | 0.485 | 0.658 | 0.458 | 0.482 | 0.559 | 0.405 | 0.626 | 0.489
28 | 0.977 | 0.775 | 0.493 | KDQPDYKYQPR [SOX9_Y172_H169Q] | 0.705 | 0.437 | 0.415 | 0.431 | 0.557 | 0.491 | 0.643 | 0.446 | 0.378 | 0.617 | 0.415 | 0.519 | 0.396
29 | 0.769 | 0.612 | 0.428 | KGSEGYLAAIF [NF1_Y2503_T2507I_YF] | 0.683 | 0.54 | 0.411 | 0.433 | 0.537 | 0.432 | 0.83 | 0.421 | 0.398 | 0.815 | 0.422 | 0.61 | 0.421
30 | 1.12 | 1.07 | 0.611 | KILGRYFETSS [PAX2_Y72_G76S_YF] | 0.648 | 0.424 | 0.406 | 0.469 | 0.633 | 0.432 | 0.694 | 0.374 | 0.508 | 0.706 | 0.358 | 0.529 | 0.341
31 | 0.89 | 0.726 | 1.62 | KILGRYYETSS [PAX2_Y72_G76S] | 0.568 | 0.428 | 0.502 | 0.435 | 0.541 | 0.447 | 0.65 | 0.424 | 0.344 | 0.595 | 0.453 | 0.613 | 0.51
32 | 0.766 | 0.632 | 0.666 | KKGMIYGGGGG [PSME1_Y249_T244K] | 0.467 | 0.3 | 0.363 | 0.407 | 0.359 | 0.365 | 0.495 | 0.388 | 0.466 | 0.487 | 0.381 | 0.447 | 0.442
33 | 1.76 | 1.75 | 1.53 | KMKGDYYRYLA [YWHAG_Y130] | 0.647 | 1.45 | 1.36 | 8.74 | 5.52 | 0.393 | 0.747 | 0.594 | 0.816 | 2.55 | 2.1 | 0.705 | 0.73
